Source: patent US20240192215A1 (E AND S HEALTHCARE, published 2024)

Tests used:
Peptide_004 [1] = target: T1, Peptide_004 (human); experiment: peptide microarray
T1 construct: 15-mer on microarray; not native form, recombinant insert region
T1 peptide: AADVHSQHHHHHHHH
Protocol: (§1) 5, 1, 0.2, 0.04, 0.008 and 0.0016 μg/mL serial dilutions were incubated on a single multi-well microarray slide at 30° C. for 1 hour. The slide includes 21 individual mini-arrays (one mini-array per sample dilution).
(§2) DyLight 650 was used as a label. False-positive binding to a peptide was evaluated by performing one additional control incubation in which only a secondary antibody was applied on the same microarray slide. Before performing each step, the microarrays were washed with a washing buffer.
MMC2 is the same as the average value of all three cases on a microarray except when the coefficient of variation (CV), which is the standard deviation divided by the average value, is larger than 0.5. In this case, the average of the two closest values (MC2) is assigned to MMC2. The thick black line in the heatmap indicates the culture of a control only using a secondary anti-mouse IgG antibody. The culture of individual antibody samples is indicated by a thin blue line. […] However, since Peptide_004 and Peptide_005 are not native forms, these peptides were excluded from an epitope candidate group.

Peptide_004 [2] = target: T1, Peptide_004; experiment: peptide microarray, 1 ug/mL
Protocol: as §1, §2

Peptide_005 [3] = target: T2, Peptide_005 (human); experiment: peptide microarray, 1 ug/mL
T2 construct: 15-mer on microarray; not native form, recombinant insert region
T2 peptide: ADVHSQHHHHHHHHV
Protocol: as §1, §2

Peptide_004 [4] = target: T1, Peptide_004; experiment: peptide microarray, 0.2 ug/mL
Protocol: as §1, §2

Peptide_005 [5] = target: T2, Peptide_005; experiment: peptide microarray, 0.2 ug/mL
Protocol: as §1, §2

Peptide_014 = target: T3, Peptide_014 (human); experiment: peptide microarray, 1 ug/mL
T3 construct: 15-mer on microarray; not native form, includes recombinant insert region
T3 peptide: HHHHHVKQIESKTAF
Protocol: as §1, §2

Peptide_022 = target: T4, Peptide_022 (human); experiment: peptide microarray, 1 ug/mL
T4 construct: 15-mer of hTrx1 on microarray
T4 peptide: IESKTAFQEALDAAG
Protocol: as §1, §2

Peptide_085 = target: T5, Peptide_085 (human); experiment: peptide microarray, 1 ug/mL
T5 construct: 15-mer of hTrx1 on microarray
T5 peptide: ECEVKCMPTFQFFKK
Protocol: as §1, §2

Peptide_092 [6] = target: T6, Peptide_092 (human); experiment: peptide microarray, 1 ug/mL
T6 construct: 15-mer of hTrx1 on microarray
T6 peptide: PTFQFFKKGQKVGEF
Protocol: as §1, §2

Peptide_012 [7] = target: T7, Peptide_012 (human); experiment: peptide microarray, 1 ug/mL
T7 construct: 15-mer on microarray; not native form, includes recombinant insert region
T7 peptide: HHHHHHHVKQIESKT
Protocol: as §1, §2

Peptide_013 = target: T8, Peptide_013 (human); experiment: peptide microarray, 1 ug/mL
T8 construct: 15-mer on microarray; not native form, includes recombinant insert region
T8 peptide: HHHHHHVKQIESKTA
Protocol: as §1, §2

Peptide_024 [8] = target: T9, Peptide_024 (human); experiment: peptide microarray, 1 ug/mL
T9 construct: 15-mer of hTrx1 on microarray
T9 peptide: SKTAFQEALDAAGDK
Protocol: as §1, §2

Peptide_020 [9] = target: T10, Peptide_020 (human); experiment: peptide microarray, 1 ug/mL
T10 construct: 15-mer of hTrx1 on microarray
T10 peptide: KQIESKTAFQEALDA
Protocol: as §1, §2

Peptide_019 [10] = target: T11, Peptide_019 (human); experiment: peptide microarray, 1 ug/mL
T11 construct: 15-mer of hTrx1 on microarray
T11 peptide: VKQIESKTAFQEALD
Protocol: as §1, §2

Peptide_094 = target: T12, Peptide_094 (human); experiment: peptide microarray, 1 ug/mL
T12 construct: 15-mer of hTrx1 on microarray
T12 peptide: FQFFKKGQKVGEFSG
Protocol: as §1, §2

Peptide_045 = target: T13, Peptide_045 (human); experiment: peptide microarray, 1 ug/mL
T13 construct: 15-mer of hTrx1 on microarray
T13 peptide: SATWCGPCKMIKPFF
Protocol: as §1, §2

Peptide_023 [11] = target: T14, Peptide_023 (human); experiment: peptide microarray, 1 ug/mL
T14 construct: 15-mer of hTrx1 on microarray
T14 peptide: ESKTAFQEALDAAGD
Protocol: as §1, §2

Peptide_025 [12] = target: T15, Peptide_025 (human); experiment: peptide microarray, 1 ug/mL
T15 construct: 15-mer of hTrx1 on microarray
T15 peptide: KTAFQEALDAAGDKL
Protocol: as §1, §2

Peptide_084 = target: T16, Peptide_084 (human); experiment: peptide microarray, 1 ug/mL
T16 construct: 15-mer of hTrx1 on microarray
T16 peptide: SECEVKCMPTFQFFK
Protocol: as §1, §2

Peptide_051 [13] = target: T17, Peptide_051 (human); experiment: peptide microarray, 1 ug/mL
T17 construct: 15-mer of hTrx1 on microarray
T17 peptide: PCKMIKPFFHSLSEK
Protocol: as §1, §2

Peptide_093 [14] = target: T18, Peptide_093 (human); experiment: peptide microarray, 1 ug/mL
T18 construct: 15-mer of hTrx1 on microarray
T18 peptide: TFQFFKKGQKVGEFS
Protocol: as §1, §2

Peptide_021 = target: T19, Peptide_021 (human); experiment: peptide microarray, 1 ug/mL
T19 construct: 15-mer of hTrx1 on microarray
T19 peptide: QIESKTAFQEALDAA
Protocol: as §1, §2

Peptide_086 [15] = target: T20, Peptide_086 (human); experiment: peptide microarray, 1 ug/mL
T20 construct: 15-mer of hTrx1 on microarray
T20 peptide: CEVKCMPTFQFFKKG
Protocol: as §1, §2

Peptide_018 [16] = target: T21, Peptide_018 (human); experiment: peptide microarray, 1 ug/mL
T21 construct: 15-mer on microarray; not native form, includes recombinant insert region; also called HVKQIESKTAFQEAL
T21 peptide: HVKQIESKTAFQEAL
Protocol: as §1, §2

Peptide_015 [17] = target: T22, Peptide_015 (human); experiment: peptide microarray, 1 ug/mL
T22 construct: 15-mer on microarray; not native form, includes recombinant insert region
T22 peptide: HHHHVKQIESKTAFQ
Protocol: as §1, §2

Peptide_095 [18] = target: T23, Peptide_095 (human); experiment: peptide microarray, 1 ug/mL
T23 construct: 15-mer of hTrx1 on microarray
T23 peptide: QFFKKGQKVGEFSGA
Protocol: as §1, §2

Peptide_092 [19] = target: T6, Peptide_092; experiment: peptide microarray, 0.2 ug/mL
Protocol: as §1, §2

Peptide_012 [20] = target: T7, Peptide_012; experiment: peptide microarray, 0.2 ug/mL
Protocol: as §1, §2

Peptide_024 [21] = target: T9, Peptide_024; experiment: peptide microarray, 0.2 ug/mL
Protocol: as §1, §2

Peptide_020 [22] = target: T10, Peptide_020; experiment: peptide microarray, 0.2 ug/mL
Protocol: as §1, §2

Peptide_019 [23] = target: T11, Peptide_019; experiment: peptide microarray, 0.2 ug/mL
Protocol: as §1, §2

Peptide_023 [24] = target: T14, Peptide_023; experiment: peptide microarray, 0.2 ug/mL
Protocol: as §1, §2

Peptide_025 [25] = target: T15, Peptide_025; experiment: peptide microarray, 0.2 ug/mL
Protocol: as §1, §2

Peptide_051 [26] = target: T17, Peptide_051; experiment: peptide microarray, 0.2 ug/mL
Protocol: as §1, §2

Peptide_093 [27] = target: T18, Peptide_093; experiment: peptide microarray, 0.2 ug/mL
Protocol: as §1, §2

Peptide_086 [28] = target: T20, Peptide_086; experiment: peptide microarray, 0.2 ug/mL
Protocol: as §1, §2

Peptide_018 [29] = target: T21, Peptide_018; experiment: peptide microarray, 0.2 ug/mL
Protocol: as §1, §2

Peptide_015 [30] = target: T22, Peptide_015; experiment: peptide microarray, 0.2 ug/mL
Protocol: as §1, §2

Peptide_095 [31] = target: T23, Peptide_095; experiment: peptide microarray, 0.2 ug/mL
Protocol: as §1, §2

B1: monoclonal antibody B266-1 (antibody, human IgG1)
light: QIVLTQSPAIMSASPGEKVTMTCSASSRISYMYWYQQKPGTSPKRWIYDTSKLASGVPARFSGSGSGTSYSLTISTMEAEDAATYYCHQRSSYPTFGAGTKLELKSVAAPSVFIFPPSDEQLKSGTASVVCLLNNFYPREAKVQWKVDNALQSGNSQESVTEQDSKDSTYSLSSTLTLSKADYEKHKVYACEVTHQGLSSPVTKSFNRGEC
heavy: not shown
notes: B266 with the Fc part changed to human IgG1; also called B266-1 (Trx1-hIgG1); B266-1 (hTrx1-hIgG1)
signal, fold of the average background level (Peptide_004 [1]): ~8 fold
signal (blank-control = 1) (Peptide_004 [2]): 2.71
signal (blank-control = 1) (Peptide_005 [3]): 3.58
signal (blank-control = 1) (Peptide_004 [4]): 1.41
signal (blank-control = 1) (Peptide_005 [5]): 1.78

B2: monoclonal antibody B264 (antibody, mouse IgG1, kappa, V domains shown)
VH: QVQLQQSGAELARPGASVKMSCKASGYTFTSYTMHWVKQRPGQGLEWIGYINPTSDYTNYNQKFKDKATLTADKSSSTAYMQLSSLTSEDSAVYFCASEGGFLYYFDYWGQGTTLTVSS
VL: DVLMTQTPLSLPVSLGDQASISCRSSQSIVHSNGNTYLEWYLQKPGQSPKLLIYKVSNRFSGVPDRFSGSGSGTDFTLKISRVEAEDLGVYYCFQGSHVPYTFGGGTKLEIKR
notes: also called AB264; B264 (Trx1-mIgG1)
signal (blank-control = 1) (Peptide_014): 6.71
signal (blank-control = 1) (Peptide_022): 5.88
signal (blank-control = 1) (Peptide_085): 3.56
signal (blank-control = 1) (Peptide_092 [6]): 9.76
signal (blank-control = 1) (Peptide_012 [7]): 3.65
signal (blank-control = 1) (Peptide_013): 4.05
signal (blank-control = 1) (Peptide_024 [8]): 6.5
signal (blank-control = 1) (Peptide_020 [9]): 2.3
signal (blank-control = 1) (Peptide_019 [10]): 1.67
signal (blank-control = 1) (Peptide_094): 3.26
signal (blank-control = 1) (Peptide_045): 5.11
signal (blank-control = 1) (Peptide_023 [11]): 1.19
signal (blank-control = 1) (Peptide_025 [12]): 7.24
signal (blank-control = 1) (Peptide_084): 3.26
signal (blank-control = 1) (Peptide_051 [13]): 3.91
signal (blank-control = 1) (Peptide_093 [14]): 5.33
signal (blank-control = 1) (Peptide_021): 2.48
signal (blank-control = 1) (Peptide_086 [15]): 1.56
signal (blank-control = 1) (Peptide_018 [16]): 5.52
signal (blank-control = 1) (Peptide_015 [17]): 5.11
signal (blank-control = 1) (Peptide_095 [18]): 3.52
signal (blank-control = 1) (Peptide_092 [19]): 6.81
signal (blank-control = 1) (Peptide_012 [20]): 1.72
signal (blank-control = 1) (Peptide_024 [21]): 4
signal (blank-control = 1) (Peptide_020 [22]): 1.84
signal (blank-control = 1) (Peptide_019 [23]): 1.48
signal (blank-control = 1) (Peptide_023 [24]): 1.12
signal (blank-control = 1) (Peptide_025 [25]): 4.9
signal (blank-control = 1) (Peptide_051 [26]): 2.32
signal (blank-control = 1) (Peptide_093 [27]): 3.72
signal (blank-control = 1) (Peptide_086 [28]): 1.16
signal (blank-control = 1) (Peptide_018 [29]): 3.49
signal (blank-control = 1) (Peptide_015 [30]): 2.5
signal (blank-control = 1) (Peptide_095 [31]): 2.13
